These are literature values, as cited in article doi:10.1101/2025.05.26.656075.

The data set deals with neonatal Fc receptor (FcRn), biotinylated (UniProt P55899+P61769). Nature of the data set: not stated. The following applies: cited from earlier work.

As for “MFc4 (IgG4 monomeric Fc of Shan et al.) L351F;S354E;T366R;P395K;F405R;Y407E;L428M;L432C;H433S;N434Y;Y436L;T437C;delQ438 (as printed)”, the KD (in general, the free concentration of one partner at which half of the binding sites on the other are occupied at equilibrium, for simple one-to-one binding) (pH 6.0) was 5 nM.

In the case of “native dimeric human IgG1 / IgG1 Fc (literature values)”, the dissociation constant KD is 2,140 nM (pH 6.0), 1,377 nM (pH low pH (number not given)) and “∼88,000 nM” (pH neutral pH (number not given)).
